Like-named read-outs stand apart in the source and are kept apart here.

The target in data set [1] is T1, EcMazE1-50 (Escherichia coli, UniProt P0AE72 1-50).
T1 chain: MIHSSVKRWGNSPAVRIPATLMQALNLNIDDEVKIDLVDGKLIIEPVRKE
Kind of data set: ITC.

The target of the next data set is EcMazE full-length (Escherichia coli, UniProt P0AE72 1-82). Kind of data set: ITC.
The target in data set [2] is T1, EcMazE1-50. The experiment in a line: NMR.
Data set [3] concerns the target T1, EcMazE1-50. The experiment in a line: ITC.
The data set “NMR solution structure” deals with the molecule itself. Kind of data set: NMR solution structure.
Data set [4] addresses EcMazE full-length;EcMazF (Escherichia coli;Escherichia coli, UniProt P0AE72;P0AE70 1-82;1-111, |). Kind of data set: EMSA.

EcMazE full-length, sequence (P0AE72 whole entry): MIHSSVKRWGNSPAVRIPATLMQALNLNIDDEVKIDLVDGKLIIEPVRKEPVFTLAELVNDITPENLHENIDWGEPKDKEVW
EcMazE full-length;EcMazF, sequence (P0AE70 whole entry, one chain of several): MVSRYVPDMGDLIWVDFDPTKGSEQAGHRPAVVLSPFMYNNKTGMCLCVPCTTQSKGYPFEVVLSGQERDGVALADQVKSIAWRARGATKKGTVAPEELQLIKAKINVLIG

B1: DNA 'a' (14 bp) (dsDNA)
DNA 1: TTGATATATACTGT
DNA 2: ACAGTATATATCAA
With B1, the equilibrium dissociation constant (Kd) with EcMazE1-50 [1] stood at 5.6 ± 0.3 µM; with EcMazE full-length, 5.1 ± 0.2 µM.

B2: DNA 'a' (15 bp, altered ends) (dsDNA)
DNA 1: CGTGATATATACTGC
DNA 2: GCAGTATATATCACG
For the molecule B2, the binding result in the data set with EcMazE1-50 [2] was “binds”.

B3: DNA 'c' (dsDNA)
DNA 1: GTATCTACAATGTAGATTG
DNA 2: CAATCTACATTGTAGATAC
With B3, in the data set with EcMazE1-50 [1], the Kd turned out to be 0.6 ± 0.2 µM.

B4: DNA 'cab' (dsDNA)
DNA 1: CTCGTATCTACAATGTAGATTGATATATACTGTATCTACATATGATAGCGT
DNA 2: ACGCTATCATATGTAGATACAGTATATATCAATCTACATTGTAGATACGAG
For B4, in the data set with EcMazE1-50 [3], the equilibrium dissociation constant (Kd) came to 0.6 ± 0.5 µM. In the case of MIHSSVKRWGNSPAVRIPATLMQALNLNIDDEVKIDLVDGKLIIEPVRKE (domain or fragment) [truncated EcMazE^1–50 (N-terminal DNA binding domain of Escherichia coli antitoxin MazE)], in “NMR solution structure”, the “stoichiometry N” value was 2.

B5: DNA 'a' (EMSA probe) (dsDNA)
DNA 1: TTGATATATACTGT
DNA 2: ACAGTATATATCAA
Turning to B5, in data set [4], the binding result was “binds”.

B6: DNA 'b' (dsDNA)
DNA 1: ATATACTGTATCTACATAT
DNA 2: ATATGTAGATACAGTATAT
B6 returned a Kd with EcMazE1-50 [1] of 2.1 ± 0.6 µM.

The values above are taken from publication PMC4333400 (Nucleic Acids Research, 2015).
